{"source": "paper PMC10907219", "about": "“Leishmania profilin interacts with actin through an unusual structural mechanism to control cytoskeletal dynamics in parasites” (The Journal of Biological Chemistry, 2024)", "molecules": {"B1": {"name": "Leishmania major profilin (LmProfilin), wild type (natural protein)", "chain": "SWQAYVDDSLIGSGNMHSAAIIGAADGSYWAYGGSYVPQPEEVQHIQKCLSDFSFVQSSGVNIYGVKFFGLQCGTDGDCKYIFFKKGAAGGCIYTTKQAFIVAVYGNPGDTSSLQQDLEKNTAHAVTVNPADCNTTVKRIADYLIKLGY", "notes": "Leishmania major profilin, TriTrypDB LmjF.32.0520, UniProt Q4Q5N1; codon-optimised synthetic gene in pCoofy3; also called WT LmProfilin; LmProf-WT; source: E. coli BL21(DE3), purified (Ni-NTA, tag cleavage with 3C-PreScission protease, gel filtration); not shown: His6, N-terminal, cleaved; GST, N-terminal, cleaved"}, "B2": {"name": "decamer poly-L-proline peptide (peptide)", "peptide": "PPPPPPPPPP", "notes": "ten L-prolines written out from these words; also called poly-L-proline decamer; polyproline decamer; source: synthetic peptide, bought: CASLO ApS"}}, "key": {"[1]": {"target": "Leishmania major actin (LmActin), ATP-actin monomer (UniProt P45520)", "assay": "ITC", "settings": "three independent ITC experiments for each protein; parent: 93.5"}, "[2]": {"target": "Leishmania major actin (LmActin), ATP-actin monomer (Leishmania major) (UniProt P45520)", "assay": "ITC; LmActin (14-19 μM) in the sample cell, profilin (150 μM) in the syringe; 22 °C; G-buffer (2 mM Tris pH 7.5, 0.5 mM β-mercaptoethanol, 0.2 mM CaCl2, 0.2 mM ATP); single set of sites model; three independent experiments"}, "[3]": {"target": "T1, Leishmania major actin (LmActin), ATP-actin monomer (Leishmania major, UniProt P45520 1-376, ATP-bound with Ca2+ (G-buffer), monomeric; C-terminal beta-thymosin-His10 tag removed by chymotrypsin; initiator Met absent as in the 8C47 entity (equals Q9U1E8 2-376))", "assay": "ITC; LmActin (14-19 μM) in the sample cell, profilin (150 μM) in the syringe; 22 °C; G-buffer (2 mM Tris pH 7.5, 0.5 mM β-mercaptoethanol, 0.2 mM CaCl2, 0.2 mM ATP); single set of sites model; three independent experiments", "settings": "both partners purified"}, "[4]": {"target": "T1, Leishmania major actin (LmActin), …", "assay": "crystal structure; LmProfilin and LmActin mixed at ~1:1 molar ratio, 4.5 to 6.5 mg/ml, sitting drop; 0.1 M Bis-Tris pH 5.5, PEG4000 26% (w/v), 0.2 M NaCl; ATP-actin monomer with Ca2+", "settings": "both partners purified"}, "[5]": {"target": "B1", "assay": "other fluorescence titration; intrinsic tryptophan fluorescence of profilin (1 μM) with 3 to 3156 μM poly-L-proline decamer; room temperature; 20 mM Hepes pH 8.0, 50 mM NaCl; excitation 295 nm; OneSiteBind fit", "settings": "both partners purified"}}, "data": [{"molecule": "Leishmania major profilin (LmProfilin), wild type (from UniProt Q4Q5N1) L115S; L119S", "values": [{"measurement": "Kd", "setting": "[1]", "value": 2740, "unit": "nM"}]}, {"molecule": "LmProfilin-K68A (from UniProt Q4Q5N1 2-150) (natural protein)", "values": [{"measurement": "Kd", "setting": "[2]", "value": 3000, "unit": "nM"}]}, {"molecule": "LmProfilin-WH2-SS (Leu115 and Leu119 replaced by serines) (from UniProt Q4Q5N1 2-150) (natural protein)", "values": [{"measurement": "fold reduction of affinity against WT profilin", "setting": "[2]", "value": 25, "unit": "fold"}]}, {"molecule": "LmProfilin-Y6A (from UniProt Q4Q5N1 2-150) (natural protein)", "values": [{"measurement": "Kd", "setting": "[2]", "value": 90, "unit": "nM"}]}, {"molecule": "LmProfilin-ΔWH2 (entire WH2-like motif deleted) (from UniProt Q4Q5N1 2-150) (natural protein)", "values": [{"measurement": "fold reduction of affinity against WT profilin", "setting": "[2]", "value": 25, "unit": "fold"}]}, {"molecule": "B1", "values": [{"measurement": "Kd", "setting": "[3]", "value": "~90", "unit": "nM"}, {"measurement": "stoichiometry N", "setting": "[4]", "value": 1}]}, {"molecule": "B2", "values": [{"measurement": "Kd", "setting": "[5]", "value": 263000, "unit": "nM"}]}]}
